The record followed here is patent publication US8158577B2, “Modulation of cartilage homeostasis by active domains of cell binding extracellular matrix molecules” (priority 2004, dated 2012).

One assay relates to K9 cells. The assay can be described thus: Adhesion of K9 cells to selected matrix constituents (FIG. 1). Format: cell-based, human. To be noted: 5 μg/ml coating, 1 hour at 37° C., 50,000 cells/well seeded. Here is the method: Human cells (K9) originating from a human chondrosarcoma were a kind gift from Drs. Sven Inerot and Anders Lindahl, The Salgrenska University Hospital Gothenburg, Sweden. The K9 cells were cultured in Dulbeccos Modified Eagle Medium: Nutrient Mixture F12 (DMEM/F12 1:1) with GLUTAMAX I, supplemented with 10% fetal calf serum, 25 μg/ml ascorbic acid, 50 IU of penicillin and 50 μg/ml streptomycin (Life Technologies, Inc.). A different human cells line (K105) originating from a human chondrosarcoma was a kind gift from Dr. Sven Inerot, The Salgrenska University Hospital, Gothenburg, Sweden. […]
To test cell binding, the chondrosarcoma cells or bovine chondrocytes were suspended in PBS containing 0.1% BSA, 25 U/ml collagenase and added to the wells (50,000/well), in the absence or presence of various peptide pools or the synthetic peptides (200, 100, 50, 25, 12.5 μg/ml). Non-adherent cells were removed after 1 hour and adhesion was determined by measuring lysosomal N-acetylglucosaminidase (12). […]
48-well tissue culture dishes were coated with 5 μg/ml collagen type II, tissue extracted bovine chondroadherin, human chondroadherin expressed in EBNA cells and human chondroadherin expressed in E. coli and blocked for non-specific binding with BSA. […] Nonadherent cells were removed by washing and adhesion was determined by analyzing lysosomal N-acetylglucosaminidase. […]

Assay [1] is described as follows: Heparin binding on Heparin-Sepharose. The settings on record: eluted with NaCl (0.5, 1, 2M), Western blot or MALDI-TOF MS. Here is the method:
Intact recombinant protein (10 μg, EBNA-cell expressed) diluted in PBS was passed over Heparin-Sepharose (Amersham Pharmacia) (1 ml), washed with 20 volumes of PBS and eluted with 2 M NaCl (6×1 ml). Eluted material was precipitated with ethanol, separated by SDS-PAGE (10%) and visualized by western blot (CHAD ab α-80, Larsson et al). The peptide CKFPTKRSKKAGRH (SEQ ID No:7) was diluted in PBS and passed over heparin-sepharose (100 μl), the column was washed with 20 volumes PBS and bound material eluted with 0.5, 1, and 2M NaCl (3 column volumes of each).
Recombinant chondroadherin (10 or 100 μg) expressed in EBNA-cells was passed over Heparin-Sepharose-column (Pharmacia). The column was washed and eluted with 2M NaCl in PBS. Eluted material was separated on SDS-PAGE (10%) and detected by western blot using a chondroadherin antibody (see FIG. 4). The band at 36 kDa represents chondroadherin ant the band at 72 kDa represents a dimer of chondroadherin.
The candidate peptide CKFPTKRSKKAGRH (SEQ ID No: 7) was synthesized. The ability of the peptide to bind heparin was confirmed on heparin-sepharose, where material eluted with 0.5, 1 and 2M NaCl was identified by MALDI-TOF MS (data not shown).
(In general: In western blotting, separated proteins are transferred to a membrane and probed.)

For a further assay, the target named is T1, Syndecan 3 (Homo sapiens, UniProt O75056).
T1 construct: endogenous in cells; host or cells: human chondrosarcoma cells K105 (membrane fraction, surface-biotinylated)
T1 sequence (O75056 whole entry): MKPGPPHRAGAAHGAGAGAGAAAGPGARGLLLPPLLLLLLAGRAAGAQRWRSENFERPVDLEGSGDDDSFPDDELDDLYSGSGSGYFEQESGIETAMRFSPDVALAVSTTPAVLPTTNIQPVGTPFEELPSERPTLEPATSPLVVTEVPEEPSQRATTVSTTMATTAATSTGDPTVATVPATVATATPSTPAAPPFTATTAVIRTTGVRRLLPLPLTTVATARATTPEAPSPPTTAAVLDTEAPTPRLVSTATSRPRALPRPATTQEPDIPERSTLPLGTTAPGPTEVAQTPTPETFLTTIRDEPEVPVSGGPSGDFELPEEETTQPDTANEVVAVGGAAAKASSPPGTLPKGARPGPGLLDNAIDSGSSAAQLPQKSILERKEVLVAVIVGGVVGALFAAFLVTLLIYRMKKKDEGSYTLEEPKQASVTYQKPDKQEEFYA
Put plainly: Affinity purification of K105 membrane proteoglycans on chondroadherin-agarose and immunoprecipitation with pan-syndecan antibody. It is filed as binding. The settings on record: eluted with 0.5 M NaCl, after heparitinase. Here is the method: Recombinant chondroadherin (2.5 mg expressed in EBNA-cells per ml agarose) was coupled to Mini-Leak agarose (Kem En Tec, A/S, Denmark) according to the manufacturer's instructions. The control agarose was treated in the same manner but with no protein added.
Human chondrosarcoma cells (k105) suspended in PBS were incubated with EZ-link sulfo NHS-LC biotin (Pierce Chemical Co) at a final concentration of 1 mg/ml for 1 hour at room temperature. The cells were incubated for 10 minutes in 0.1 M glycine in PBS to block free biotin, washed three times in PBS and then resuspended and homogenized in 10 mM KCl, 20 mM Tris/HCl, pH 7.4, 1 mM EDTA (1 ml/10^6 cells). Nuclei were removed by centrifugation at 1,500 g for 5 minutes, 0.15 M NaCl was added to the supernatant and the membrane fraction was collected by centrifugation at 50,000 g for 30 minutes. The pellet was suspended in 2 ml 8 M UREA, 2% […] in TBS pH 7.4 supplemented with COMPLET® protease inhibitor (Roche). The lysate was cleared by centrifugation at 14,000 g for 20 min. […]
Cell surface proteins on human chondrosarcoma cells (K105) were biotin labeled and affinity purified on chondroadherin-agarose in urea. Bound material was eluted with 0.5 M NaCl, separated on SDS-PAGE (4-12%) and detected by Western blot before or after heparitinase and chondroitinase ABC treatment. […]

B1: Chondroadherin (protein)
chain: ACPQNCHCHSDLQHVICDKVGLQKIPKVSEKTKLLNLQRNNFPVLAANSFRAMPNLVSLHLQHCQIREVAAGAFRGLKQLIYLYLSHNDIRVLRAGAFDDLTELTYLYLDHNKVTELPRGLLSPLVNLFILQLNNNKIRELRAGRFQGAKDLRWLYLSENALSSLQPGALDDVENLAKFHVDRNQLSSYPSAALSKLRVVEELKLSHNPLKSIPDNAFQSFGRYLETLWLDNTNLEKFSDGAFLGVTTLKHVHLENNRLNQLPSNFPFDSLETLALTNNPWKCTCQLRGLRRWLEAKASRPDATCASPAKFKGQHIRDTDAFRSCKFPTKRSKKAGRH
modifications: homo sapiens
notes: leucine-rich cartilage matrix protein, 338 amino acids; human recombinant, expressed in EBNA cells or E. coli
With B1, the “adhesion of K9 cells to coated substrate (number of cells)” value in the assay with K9 cells was “virtually identical to that of the bacterially expressed”. The binding to heparin-sepharose result in assay [1] is given as “bind to the heparin-sepharose”; in assay [1] (listed as Recombinant chondroadherin), “bind heparin”. The “K105 membrane component bound to chondroadherin” value in the assay with Syndecan 3 was “Syndecan 3”.
